According to EP1688435A1 (Boehringer Ingelheim International GmbH, dated 2006):

Assays:
Assay in all cases: immunoprecipitation with myc antibodies, SDS-PAGE and silver staining (Figure 3B)
[1] = target: T1, human cohesin subunit SA2 (cell-cycle state not stated) (human, UniProt Q8N3U4 1-1231)
T1 construct: Endogenous protein from HeLa cells
T1 sequence: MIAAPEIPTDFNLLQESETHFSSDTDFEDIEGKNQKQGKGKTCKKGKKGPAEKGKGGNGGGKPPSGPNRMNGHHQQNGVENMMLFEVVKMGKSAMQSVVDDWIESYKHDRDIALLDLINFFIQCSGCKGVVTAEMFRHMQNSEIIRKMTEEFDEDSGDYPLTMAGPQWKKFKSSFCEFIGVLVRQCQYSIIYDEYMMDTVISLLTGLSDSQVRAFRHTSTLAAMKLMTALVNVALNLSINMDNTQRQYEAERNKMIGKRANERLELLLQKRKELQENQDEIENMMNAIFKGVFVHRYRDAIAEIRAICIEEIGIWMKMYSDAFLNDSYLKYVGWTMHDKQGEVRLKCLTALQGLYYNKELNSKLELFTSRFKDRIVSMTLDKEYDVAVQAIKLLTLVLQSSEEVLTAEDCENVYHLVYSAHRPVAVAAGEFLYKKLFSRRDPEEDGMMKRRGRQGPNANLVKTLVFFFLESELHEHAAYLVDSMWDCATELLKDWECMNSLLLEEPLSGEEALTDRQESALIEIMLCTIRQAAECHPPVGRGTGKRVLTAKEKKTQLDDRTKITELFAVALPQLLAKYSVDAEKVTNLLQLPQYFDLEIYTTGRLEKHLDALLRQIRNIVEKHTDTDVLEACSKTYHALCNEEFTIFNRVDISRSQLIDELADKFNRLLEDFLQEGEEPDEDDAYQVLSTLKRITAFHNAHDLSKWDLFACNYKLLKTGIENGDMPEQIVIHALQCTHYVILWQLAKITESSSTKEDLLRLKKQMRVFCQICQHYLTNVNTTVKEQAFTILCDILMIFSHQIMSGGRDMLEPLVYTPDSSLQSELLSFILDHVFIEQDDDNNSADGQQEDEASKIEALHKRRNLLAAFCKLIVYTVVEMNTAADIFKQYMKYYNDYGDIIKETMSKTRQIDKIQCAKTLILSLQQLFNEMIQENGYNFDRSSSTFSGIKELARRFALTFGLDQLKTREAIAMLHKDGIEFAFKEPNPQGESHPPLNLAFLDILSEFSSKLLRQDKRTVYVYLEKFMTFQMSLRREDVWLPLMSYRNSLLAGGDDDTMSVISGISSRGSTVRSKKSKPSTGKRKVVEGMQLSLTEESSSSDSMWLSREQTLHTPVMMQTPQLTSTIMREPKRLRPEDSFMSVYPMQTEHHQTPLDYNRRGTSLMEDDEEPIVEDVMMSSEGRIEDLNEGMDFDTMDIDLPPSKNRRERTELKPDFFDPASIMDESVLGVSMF

[2] = target: human cohesin subunit Smc3 (human, UniProt Q9UQE7 1-1217)
[3] = target: T2, human cohesin subunit SA1 (cell-cycle state not stated) (human, UniProt Q8WVM7 1-1258)
T2 sequence (looked up): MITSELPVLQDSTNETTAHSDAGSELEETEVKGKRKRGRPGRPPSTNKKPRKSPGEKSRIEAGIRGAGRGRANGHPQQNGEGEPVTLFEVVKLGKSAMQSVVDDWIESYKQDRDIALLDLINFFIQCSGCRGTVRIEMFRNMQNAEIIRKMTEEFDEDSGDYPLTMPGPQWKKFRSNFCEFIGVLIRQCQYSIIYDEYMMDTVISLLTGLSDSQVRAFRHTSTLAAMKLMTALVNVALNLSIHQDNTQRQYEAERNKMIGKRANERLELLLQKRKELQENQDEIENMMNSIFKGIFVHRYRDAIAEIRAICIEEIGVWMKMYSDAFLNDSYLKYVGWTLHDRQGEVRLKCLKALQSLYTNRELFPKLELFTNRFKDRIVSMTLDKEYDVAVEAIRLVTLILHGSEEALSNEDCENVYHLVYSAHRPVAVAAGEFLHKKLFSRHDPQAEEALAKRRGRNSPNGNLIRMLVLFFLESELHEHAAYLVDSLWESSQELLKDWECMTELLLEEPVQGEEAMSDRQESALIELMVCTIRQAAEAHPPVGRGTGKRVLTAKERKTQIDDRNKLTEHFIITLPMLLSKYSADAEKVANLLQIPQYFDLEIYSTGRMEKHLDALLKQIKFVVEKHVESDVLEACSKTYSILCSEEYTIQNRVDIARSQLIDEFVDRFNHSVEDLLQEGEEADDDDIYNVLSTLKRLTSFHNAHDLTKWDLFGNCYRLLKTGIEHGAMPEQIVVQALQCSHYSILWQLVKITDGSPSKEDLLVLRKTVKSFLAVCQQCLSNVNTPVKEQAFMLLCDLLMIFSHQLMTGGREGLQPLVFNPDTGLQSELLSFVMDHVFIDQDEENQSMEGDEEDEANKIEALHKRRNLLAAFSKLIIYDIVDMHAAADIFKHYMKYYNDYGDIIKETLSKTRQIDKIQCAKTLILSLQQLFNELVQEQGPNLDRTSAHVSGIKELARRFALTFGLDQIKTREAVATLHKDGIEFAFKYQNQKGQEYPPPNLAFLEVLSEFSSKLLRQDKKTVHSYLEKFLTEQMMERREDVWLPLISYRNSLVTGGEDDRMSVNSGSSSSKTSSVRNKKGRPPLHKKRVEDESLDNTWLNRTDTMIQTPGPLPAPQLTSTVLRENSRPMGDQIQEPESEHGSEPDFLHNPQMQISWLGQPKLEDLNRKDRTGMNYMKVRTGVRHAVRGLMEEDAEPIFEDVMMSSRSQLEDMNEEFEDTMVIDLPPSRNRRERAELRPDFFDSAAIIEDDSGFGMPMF

[4] = target: T3, human cohesin subunit Smc1 (human, UniProt Q14683 1-1233)
T3 construct: also called Smcl
T3 sequence (looked up): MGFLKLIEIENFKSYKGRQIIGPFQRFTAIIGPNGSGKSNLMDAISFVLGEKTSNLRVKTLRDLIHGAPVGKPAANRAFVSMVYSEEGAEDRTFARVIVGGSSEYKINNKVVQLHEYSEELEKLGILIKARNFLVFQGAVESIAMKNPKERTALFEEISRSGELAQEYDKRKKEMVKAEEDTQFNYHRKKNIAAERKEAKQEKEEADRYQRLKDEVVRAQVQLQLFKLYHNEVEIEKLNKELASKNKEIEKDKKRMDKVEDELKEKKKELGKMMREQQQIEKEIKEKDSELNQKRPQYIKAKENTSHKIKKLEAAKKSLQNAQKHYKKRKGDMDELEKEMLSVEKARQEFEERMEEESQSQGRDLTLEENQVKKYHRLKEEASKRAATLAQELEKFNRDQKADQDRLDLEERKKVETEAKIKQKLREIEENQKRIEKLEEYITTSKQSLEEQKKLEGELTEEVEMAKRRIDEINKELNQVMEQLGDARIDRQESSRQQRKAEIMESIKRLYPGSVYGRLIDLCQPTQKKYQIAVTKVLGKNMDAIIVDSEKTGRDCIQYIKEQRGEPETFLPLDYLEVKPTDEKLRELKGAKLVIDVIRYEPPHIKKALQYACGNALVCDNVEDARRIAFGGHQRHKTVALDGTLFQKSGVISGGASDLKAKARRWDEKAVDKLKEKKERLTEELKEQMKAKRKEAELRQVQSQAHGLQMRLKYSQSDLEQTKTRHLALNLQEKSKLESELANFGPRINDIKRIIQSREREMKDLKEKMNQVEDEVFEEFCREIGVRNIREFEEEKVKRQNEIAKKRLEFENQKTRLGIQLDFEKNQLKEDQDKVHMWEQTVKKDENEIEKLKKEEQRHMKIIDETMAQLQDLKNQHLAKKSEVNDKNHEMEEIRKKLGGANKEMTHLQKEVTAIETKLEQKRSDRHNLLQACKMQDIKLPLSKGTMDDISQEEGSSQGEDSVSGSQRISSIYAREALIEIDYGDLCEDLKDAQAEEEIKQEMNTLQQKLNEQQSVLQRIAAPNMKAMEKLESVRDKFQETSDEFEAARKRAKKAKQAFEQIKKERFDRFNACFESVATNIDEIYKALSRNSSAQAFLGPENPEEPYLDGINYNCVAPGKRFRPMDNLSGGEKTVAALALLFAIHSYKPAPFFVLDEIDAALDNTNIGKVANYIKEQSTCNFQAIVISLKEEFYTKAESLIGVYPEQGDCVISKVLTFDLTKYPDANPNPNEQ

Measured: binding result

Chain of human cohesin subunit Smc3 (Q9UQE7 whole entry): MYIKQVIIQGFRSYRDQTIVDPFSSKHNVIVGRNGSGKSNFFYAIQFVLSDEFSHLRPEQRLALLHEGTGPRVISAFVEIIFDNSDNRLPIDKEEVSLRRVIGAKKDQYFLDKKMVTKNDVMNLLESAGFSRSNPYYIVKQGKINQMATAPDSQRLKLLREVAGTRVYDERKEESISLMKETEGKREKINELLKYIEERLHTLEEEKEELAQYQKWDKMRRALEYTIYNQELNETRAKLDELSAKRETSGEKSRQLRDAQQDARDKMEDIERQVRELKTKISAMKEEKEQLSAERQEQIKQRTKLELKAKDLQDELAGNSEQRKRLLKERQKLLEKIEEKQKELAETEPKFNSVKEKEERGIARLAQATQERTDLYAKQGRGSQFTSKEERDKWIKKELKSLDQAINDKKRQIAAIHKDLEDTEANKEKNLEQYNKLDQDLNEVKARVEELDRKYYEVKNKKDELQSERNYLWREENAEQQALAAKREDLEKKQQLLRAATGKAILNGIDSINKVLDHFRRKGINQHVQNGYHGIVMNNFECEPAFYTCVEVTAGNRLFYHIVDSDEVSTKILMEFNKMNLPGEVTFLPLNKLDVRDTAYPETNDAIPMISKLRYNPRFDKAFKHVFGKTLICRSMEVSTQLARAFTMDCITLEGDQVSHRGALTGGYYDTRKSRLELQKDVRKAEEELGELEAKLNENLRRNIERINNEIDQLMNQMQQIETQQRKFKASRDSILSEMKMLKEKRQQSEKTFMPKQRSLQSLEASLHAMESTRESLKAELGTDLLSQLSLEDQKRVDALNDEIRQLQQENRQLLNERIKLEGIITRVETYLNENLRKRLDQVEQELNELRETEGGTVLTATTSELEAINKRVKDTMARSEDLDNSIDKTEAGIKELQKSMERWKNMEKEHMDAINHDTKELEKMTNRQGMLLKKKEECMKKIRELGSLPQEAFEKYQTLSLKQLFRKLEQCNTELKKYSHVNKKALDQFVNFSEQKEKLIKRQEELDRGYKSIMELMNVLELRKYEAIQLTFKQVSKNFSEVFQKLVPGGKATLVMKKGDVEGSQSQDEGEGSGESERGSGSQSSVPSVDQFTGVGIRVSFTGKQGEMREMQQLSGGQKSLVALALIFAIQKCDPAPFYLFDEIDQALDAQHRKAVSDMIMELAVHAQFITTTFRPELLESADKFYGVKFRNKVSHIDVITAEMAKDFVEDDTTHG

B1: Scc1-S454A-myc expressed in HeLa tet-on cells (cell-cycle state not stated) (other)
chain: MFYAHFVLSKRGPLAKIWLAAHWDKKLTKAHVFECNLESSVESIISPKVKMALRTSGHLLLGVVRIYHRKAKYLLADCNEAFIKIKMAFRPGVVDLPEENREAAYNAITLPEEFHDFDQPLPDLDDIDVAQQFSLNQSRVEEITMREEVGNISILQENDFGDFGMDDREIMREGSAFEDDDMLVSTTTSNLLLESEQSTSNLNEKINHLEYEDQYKDDNFGEGNDGGILDDKLISNNDGGIFDDPPALSEAGVMLPEQPAHDDMDEDDNVSMGGPDSPDSVDPVEPMPTMTDQTTLVPNEEEAFALEPIDITVKETKAKRKRKLIVDSVKELDSKTIRAQLSDYSDIVTTLDLAPPTKKLMMWKETGGVEKLFSLPAQPLWNNRLLKLFTRCLTPLVPEDLRKRRKGGEADNLDEFLKEFENPEVPREDQQQQHQQRDVIDEPIIEEPSRLQEAVMEASRTNIDESAMPPPPPQGVKRKAGQIDPEPVMPPQQVEQMEIPPVELPPEEPPNICQLIPELELLPEKEKEKEKEKEDDEEEEDEDASGGDQDQEERRWNKRTQQMLHGLQRALAKTGAESISLLELCRNTNRKQAAAKFYSFLVLKKQQAIELTQEEPYSDIIATPGPRFHII
notes: not shown: 9xmyc tag at the C-terminus
binds: all assays above
